B1: Azoarcus group I ribozyme (parent)
chain: GUGCCUUGCGCCGGGAAACCACGCAAGGGAUGGUGUCAAAUUCGGCGAAACCUAAGCGCCCGCCCGGGCGUAUGGCAACGCCGAGCCAAGCUUCGGCGCCUGCGCCGAUGAAGGUGUAGAGACUAGACGGCACCCACCUAAGGCAAACGCUAUGGUGAAGGCAUAGUCCAGGGAGUGGCGAAAGUCACACAAACCGG

Variants of: B1
Test: reverse-splicing fitness (ratio to wild type); higher = more active; in vitro selection; Mg2+ level not given
Procedure, shortened: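 An in vitro group I ribozyme library with randomized positions was T7-transcribed and gel-purified. In triplicate, 10 pmol RNA in EPPS pH 7.5 was reacted with 50 pmoles of a 30-nt RNA substrate for 1 h at 37 °C across several added MgCl2 levels (1–48 mM), then stopped with EDTA. Products were reverse transcribed from a substrate-complementary primer, PCR-amplified and sequenced (HiSeq 4000). Fitness is a variant's read proportion after selection over that before, normalised to wild type.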

Variant	reverse-splicing fitness
C82U A111C A120G A145G C150G C169G	0.0068
C82U A111C A120G A145G C150G C169G U176A	0.00921
C82U A111C A120G A145G C150G C169G U176C	0.0114
C82U A111C A120G A145G C150G C169G U176G	0.00526
C82U A111C A120G A145G C150G C169U	0.00832
C82U A111C A120G A145G C150G C169U U176A	0.0116
C82U A111C A120G A145G C150G C169U U176C	0.0104
C82U A111C A120G A145G C150G C169U U176G	0.00643
C82U A111C A120G A145G C150G U176A	0.00693
C82U A111C A120G A145G C150G U176C	0.0103
C82U A111C A120G A145G C150G U176G	0.00607
C82U A111C A120G A145G C150U	0.0115
C82U A111C A120G A145G C150U C169A	0.0103
C82U A111C A120G A145G C150U C169A U176A	0.0136
C82U A111C A120G A145G C150U C169A U176C	0.0142
C82U A111C A120G A145G C150U C169A U176G	0.00542
C82U A111C A120G A145G C150U C169G	0.00984
C82U A111C A120G A145G C150U C169G U176A	0.0112
C82U A111C A120G A145G C150U C169G U176C	0.0159
C82U A111C A120G A145G C150U C169G U176G	0.00467
C82U A111C A120G A145G C150U C169U	0.00958

Variant	reverse-splicing fitness
C82U A111C A120G A145G C150U C169U U176A	0.0152
C82U A111C A120G A145G C150U C169U U176C	0.0131
C82U A111C A120G A145G C150U C169U U176G	0.00449
C82U A111C A120G A145G C150U U176A	0.00886
C82U A111C A120G A145G C150U U176C	0.0169
C82U A111C A120G A145G C150U U176G	0.00547
C82U A111C A120G A145G C169A	0.0105
C82U A111C A120G A145G C169A U176A	0.0193
C82U A111C A120G A145G C169A U176C	0.0272
C82U A111C A120G A145G C169A U176G	0.00456
C82U A111C A120G A145G C169G	0.00926
C82U A111C A120G A145G C169G U176A	0.019
C82U A111C A120G A145G C169G U176C	0.028
C82U A111C A120G A145G C169G U176G	0.00408
C82U A111C A120G A145G C169U	0.00883
C82U A111C A120G A145G C169U U176A	0.0161
C82U A111C A120G A145G C169U U176C	0.0125
C82U A111C A120G A145G C169U U176G	0.00411
C82U A111C A120G A145G U176A	0.0143
C82U A111C A120G A145G U176C	0.0199
C82U A111C A120G A145G U176G	0.00476

Source: the RNAGym collection of RNA variant scans (doi:10.1093/molbev/msab373)
